Data published in the supplement of paper PMC5998384.

Experiments:
HeLa Kyoto [1] = assay: solubility change mitosis vs G1/S (difference of NP-40 vs SDS log2 ratios) (log2 ratio difference); higher = more soluble in mitosis
HeLa Kyoto [2] = assay: thermal stability score vs G1/S (z-score of summed log2 fold changes over temperatures); higher = more thermally stable than in G1/S
HeLa Kyoto [3] = assay: melting temperature (median over replicates), in situ; higher = more thermally stable
HeLa Kyoto [4] = assay: solubility in G1/S (NP-40 vs SDS abundance) (log2 ratio); higher = more soluble; details: cell cycle stage: G1/S
[5] = cell cycle stage: early G1 (4.5 h after nocodazole release)
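Throughout, for melting temperature (median over replicates), in situ: HeLa Kyoto cells synchronized by double thymidine or nocodazole block, proteins quantified by TMT10plex mass spectrometry, three independent biological replicates.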
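Throughout, for solubility change mitosis vs G1/S (difference of NP-40 vs SDS log2 ratios): synchronized HeLa Kyoto cells (double thymidine block for G1/S, nocodazole release for mitosis), protein amounts in NP-40 versus SDS lysates quantified by mass spectrometry, three biological replicates.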
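Throughout, for solubility in G1/S (NP-40 vs SDS abundance): HeLa Kyoto cells arrested at G1/S by double thymidine block, proteins quantified by TMT10plex mass spectrometry in mild NP-40 versus SDS extracts, three biological replicates.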
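Throughout, for thermal stability score vs G1/S (z-score of summed log2 fold changes over temperatures): synchronized HeLa Kyoto cells, proteins quantified by TMT10plex mass spectrometry, three biological replicates, mitosis taken 0.5 h after nocodazole release, G1/S directly after double thymidine block.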

| Substance | solubility change mitosis (log2) (HeLa Kyoto [1]) | thermal stability score (HeLa Kyoto [2]; [5]) | thermal stability score (HeLa Kyoto [2]; cell cycle stage: mitosis) | melting temperature (HeLa Kyoto [3]; cell cycle stage: G1/S) [°C] | melting temperature (HeLa Kyoto [3]; cell cycle stage: mitosis) [°C] | solubility in G1/S (log2) (HeLa Kyoto [4]) |
| --- | --- | --- | --- | --- | --- | --- |
| MLSESSSFLKGVMLGSIFCALITMLGHIRIGHGNRMHHHEHHHLQAPNKEDILKISEDERMELSKSFRVYCIILVKPKDVSLWAAVKETWTKHCDKAEFFSSENVKVFESINMDTNDMWLMMRKAYKYAFDKYRDQYNWFFLARPTTFAIIENLKYFLLKKDPSQPFYLGHTIKSGDLEYVGMEGGIVLSVESMKRLNSLLNIPEKCPEQGGMIWKISEDKQLAVCLKYAGVFAENAEDADGKDVFNTKSVGLSIKEAMTYHPNQVVEGCCSDMAVTFNGLTPNQMHVMMYGVYRLRAFGHIFNDALVFLPPNGSDND [C1GALT1C1] | -0.0947 | -0.0972 | -0.609 | 53.9 | 53.4 | 0.0342 |
| MSGTKPDILWAPHHVDRFVVCDSELSLYHVESTVNSELKAGSLRLSEDSAATLLSINSDTPYMKCVAWYLNYDPECLLAVGQANGRVVLTSLGQDHNSKFKDLIGKEFVPKHARQCNTLAWNPLDSNWLAAGLDKHRADFSVLIWDICSKYTPDIVPMEKVKLSAGETETTLLVTKPLYELGQNDACLSLCWLPRDQKLLLAGMHRNLAIFDLRNTSQKMFVNTKAVQGVTVDPYFHDRVASFYEGQVAIWDLRKFEKPVLTLTEQPKPLTKVAWCPTRTGLLATLTRDSNIIRLYDMQHTPTPIGDETEPTIIERSVQPCDNYIASFAWHPTSQNRMIVVTPNRTMSDFTVFERISLAWSPITSLMWACGRHLYECTEEENDNSLEKDIATKMRLRALSRYGLDTEQVWRNHILAGNEDPQLKSLWYTLHFMKQYTEDMDQKSPGNKGSLVYAGIKSIVKSSLGMVESSRHNWSGLDKQSDIQNLNEERILALQLCGWIKKGTDVDVGPFLNSLVQEGEWERAAAVALFNLDIRRAIQILNEGASSEKGDLNLNVVAMALSGYTDEKNSLWREMCSTLRLQLNNPYLCVMFAFLTSETGSYDGVLYENKVAVRDRVAFACKFLSDTQLNRYIEKLTNEMKEAGNLEGILLTGLTKDGVDLMESYVDRTGDVQTASYCMLQGSPLDVLKDERVQYWIENYRNLLDAWRFWHKRAEFDIHRSKLDPSSKPLAQVFVSCNFCGKSISYSCSAVPHQGRGFSQYGVSGSPTKSKVTSCPGCRKPLPRCALCLINMGTPVSSCPGGTKSDEKVDLSKDKKLAQFNNWFTWCHNCRHGGHAGHMLSWFRDHAECPVSACTCKCMQLDTTGNLVPAETVQP [MIOS] | 0.0327 | -0.829 | -1.48 | 53.9 | 53 | -0.271 |
| MPYEIKKVFASLPQVERGVSKIIGGDPKGNNFLYTNGKCVILRNIDNPALADIYTEHAHQVVVAKYAPSGFYIASGDVSGKLRIWDTTQKEHLLKYEYQPFAGKIKDIAWTEDSKRIAVVGEGREKFGAVFLWDSGSSVGEITGHNKVINSVDIKQSRPYRLATGSDDNCAAFFEGPPFKFKFTIGDHSRFVNCVRFSPDGNRFATASADGQIYIYDGKTGEKVCALGGSKAHDGGIYAISWSPDSTHLLSASGDKTSKIWDVSVNSVVSTFPMGSTVLDQQLGCLWQKDHLLSVSLSGYINYLDRNNPSKPLHVIKGHSKSIQCLTVHKNGGKSYIYSGSHDGHINYWDSETGENDSFAGKGHTNQVSRMTVDESGQLISCSMDDTVRYTSLMLRDYSGQGVVKLDVQPKCVAVGPGGYAVVVCIGQIVLLKDQRKCFSIDNPGYEPEVVAVHPGGDTVAIGGVDGNVRLYSILGTTLKDEGKLLEAKGPVTDVAYSHDGAFLAVCDASKVVTVFSVADGYSENNVFYGHHAKIVCLAWSPDNEHFASGGMDMMVYVWTLSDPETRVKIQDAHRLHHVSSLAWLDEHTLVTTSHDASVKEWTITY [WDR1] | -0.128 | -0.713 | -2.84 | 53.7 | 52.3 | -0.153 |
| MGKGDPNKPRGKMSSYAFFVQTCREEHKKKHPDSSVNFAEFSKKCSERWKTMSAKEKSKFEDMAKSDKARYDREMKNYVPPKGDKKGKKKDPNAPKRPPSAFFLFCSEHRPKIKSEHPGLSIGDTAKKLGEMWSEQSAKDKQPYEQKAAKLKEKYEKDIAAYRAKGKSEAGKKGPGRPTGSKKKNEPEDEEEEEEEEDEDEEEEDEDEE [HMGB2] | 0.338 | 0.292 | -0.27 | 58.1 | 56.7 | 0.485 |
| MSEGVDLIDIYADEEFNQDPEFNNTDQIDLYDDVLTATSQPSDDRSSSTEPPPPVRQEPSPKPNNKTPAILYTYSGLRNRRAAVYVGSFSWWTTDQQLIQVIRSIGVYDVVELKFAENRANGQSKGYAEVVVASENSVHKLLELLPGKVLNGEKVDVRPATRQNLSQFEAQARKRECVRVPRGGIPPRAHSRDSSDSADGRATPSENLVPSSARVDKPPSVLPYFNRPPSALPLMGLPPPPIPPPPPLSSSFGVPPPPPGIHYQHLMPPPPRLPPHLAVPPPGAIPPALHLNPAFFPPPNATVGPPPDTYMKASAPYNHHGSRDSGPPPSTVSEAEFEDIMKRNRAISSSAISKAVSGASAGDYSDAIETLLTAIAVIKQSRVANDERCRVLISSLKDCLHGIEAKSYSVGASGSSSRKRHRSRERSPSRSRESSRRHRDLLHNEDRHDDYFQERNREHERHRDRERDRHH [CPSF7] | 0.173 | -1.14 | -2.91 | 51.8 | 52.1 | -0.309 |
| MAAPLIPLSQQIPTGNSLYESYYKQVDPAYTGRVGASEAALFLKKSGLSDIILGKIWDLADPEGKGFLDKQGFYVALRLVACAQSGHEVTLSNLNLSMPPPKFHDTSSPLMVTPPSAEAHWAVRVEEKAKFDGIFESLLPINGLLSGDKVKPVLMNSKLPLDVLGRVWDLSDIDKDGHLDRDEFAVAMHLVYRALEKEPVPSALPPSLIPPSKRKKTVFPGAVPVLPASPPPKDSLRSTPSHGSVSSLNSTGSLSPKHSLKQTQPTVNWVVPVADKMRFDEIFLKTDLDLDGYVSGQEVKEIFMHSGLTQNLLAHIWALADTRQTGKLSKDQFALAMYFIQQKVSKGIDPPQVLSPDMVPPSERGTPGPDSSGSLGSGEFTGVKELDDISQEIAQLQREKYSLEQDIREKEEAIRQKTSEVQELQNDLDRETSSLQELEAQKQDAQDRLDEMDQQKAKLRDMLSDVRQKCQDETQMISSLKTQIQSQESDLKSQEDDLNRAKSELNRLQQEETQLEQSIQAGRVQLETIIKSLKSTQDEINQARSKLSQLHESRQEAHRSLEQYDQVLDGAHGASLTDLANLSEGVSLAERGSFGAMDDPFKNKALLFSNNTQELHPDPFQTEDPFKSDPFKGADPFKGDPFQNDPFAEQQTTSTDPFGGDPFKESDPFRGSATDDFFKKQTKNDPFTSDPFTKNPSLPSKLDPFESSDPFSSSSVSSKGSDPFGTLDPFGSGSFNSAEGFADFSQMSKPPPSGPFTSSLGGAGFSDDPFKSKQDTPALPPKKPAPPRPKPPSGKSTPVSQLGSADFPEAPDPFQPLGADSGDPFQSKKGFGDPFSGKDPFVPSSAAKPSKASASGFADFTSVS [EPS15L1] | -0.0276 | 0.244 | 1.69 | 49.6 | 51.2 | 0.43 |
| MSSSPLSKKRRVSGPDPKPGSNCSPAQSVLSEVPSVPTNGMAKNGSEADIDEGLYSRQLYVLGHEAMKRLQTSSVLVSGLRGLGVEIAKNIILGGVKAVTLHDQGTAQWADLSSQFYLREEDIGKNRAEVSQPRLAELNSYVPVTAYTGPLVEDFLSGFQVVVLTNTPLEDQLRVGEFCHNRGIKLVVADTRGLFGQLFCDFGEEMILTDSNGEQPLSAMVSMVTKDNPGVVTCLDEARHGFESGDFVSFSEVQGMVELNGNQPMEIKVLGPYTFSICDTSNFSDYIRGGIVSQVKVPKKISFKSLVASLAEPDFVVTDFAKFSRPAQLHIGFQALHQFCAQHGRPPRPRNEEDAAELVALAQAVNARALPAVQQNNLDEDLIRKLAYVAAGDLAPINAFIGGLAAQEVMKACSGKFMPIMQWLYFDALECLPEDKEVLTEDKCLQRQNRYDGQVAVFGSDLQEKLGKQKYFLVGAGAIGCELLKNFAMIGLGCGEGGEIIVTDMDTIEKSNLNRQFLFRPWDVTKLKSDTAAAAVRQMNPHIRVTSHQNRVGPDTERIYDDDFFQNLDGVANALDNVDARMYMDRRCVYYRKPLLESGTLGTKGNVQVVIPFLTESYSSSQDPPEKSIPICTLKNFPNAIEHTLQWARDEFEGLFKQPAENVNQYLTDPKFVERTLRLAGTQPLEVLEAVQRSLVLQRPQTWADCVTWACHHWHTQYSNNIRQLLHNFPPDQLTSSGAPFWSGPKRCPHPLTFDVNNPLHLDYVMAAANLFAQTYGLTGSQDRAAVATFLQSVQVPEFTPKSGVKIHVSDQELQSANASVDDSRLEELKATLPSPDKLPGFKMYPIDFEKDDDSNFHMDFIVAASNLRAENYDIPSADRHKSKLIAGKIIPAIATTTAAVVGLVCLELYKVVQGHRQLDSYKNGFLNLALPFFGFSEPLAAPRHQYYNQEWTLWDRFEVQGLQPNGEEMTLKQFLDYFKTEHKLEITMLSQGVSMLYSFFMPAAKLKERLDQPMTEIVSRVSKRKLGRHVRALVLELCCNDESGEDVEVPYVRYTIR [UBA1] | -0.171 | 2.94 | 5.38 | 49.5 | 50 | 0.11 |
| MAAAAMAAAAGGGAGAARSLSRFRGCLAGALLGDCVGSFYEAHDTVDLTSVLRHVQSLEPDPGTPGSERTEALYYTDDTAMARALVQSLLAKEAFDEVDMAHRFAQEYKKDPDRGYGAGVVTVFKKLLNPKCRDVFEPARAQFNGKGSYGNGGAMRVAGISLAYSSVQDVQKFARLSAQLTHASSLGYNGAILQALAVHLALQGESSSEHFLKQLLGHMEDLEGDAQSVLDARELGMEERPYSSRLKKIGELLDQASVTREEVVSELGNGIAAFESVPTAIYCFLRCMEPDPEIPSAFNSLQRTLIYSISLGGDTDTIATMAGAIAGAYYGMDQVPESWQQSCEGYEETDILAQSLHRVFQKS [ADPRHL2] | -0.105 | 0.365 | -0.404 | 53.3 | 52.5 | 0.408 |
| MCASVKYNIRGPALIPRMKTKHRIYYITLFSIVLLGLIATGMFQFWPHSIESSNDWNVEKRSIRDVPVVRLPADSPIPERGDLSCRMHTCFDVYRCGFNPKNKIKVYIYALKKYVDDFGVSVSNTISREYNELLMAISDSDYYTDDINRACLFVPSIDVLNQNTLRIKETAQAMAQLSRWDRGTNHLLFNMLPGGPPDYNTALDVPRDRALLAGGGFSTWTYRQGYDVSIPVYSPLSAEVDLPEKGPGPRQYFLLSSQVGLHPEYREDLEALQVKHGESVLVLDKCTNLSEGVLSVRKRCHKHQVFDYPQVLQEATFCVVLRGARLGQAVLSDVLQAGCVPVVIADSYILPFSEVLDWKRASVVVPEEKMSDVYSILQSIPQRQIEEMQRQARWFWEAYFQSIKAIALATLQIINDRIYPYAAISYEEWNDPPAVKWGSVSNPLFLPLIPPQSQGFTAIVLTYDRVESLFRVITEVSKVPSLSKLLVVWNNQNKNPPEDSLWPKIRVPLKVVRTAENKLSNRFFPYDEIETEAVLAIDDDIIMLTSDELQFGYEVWREFPDRLVGYPGRLHLWDHEMNKWKYESEWTNEVSMVLTGAAFYHKYFNYLYTYKMPGDIKNWVDAHMNCEDIAMNFLVANVTGKAVIKVTPRKKFKCPECTAIDGLSLDQTHMVERSECINKFASVFGTMPLKVVEHRADPVLYKDDFPEKLKSFPNIGSL [EXT2] | 0.0664 | -1.61 | -1.33 | 54 | 53.4 | -0.537 |
| MESPASSQPASMPQSKGKSKRKKDLRISCMSKPPAPNPTPPRNLDSRTFITIGDRNFEVEADDLVTISELGRGAYGVVEKVRHAQSGTIMAVKRIRATVNSQEQKRLLMDLDINMRTVDCFYTVTFYGALFREGDVWICMELMDTSLDKFYRKVLDKNMTIPEDILGEIAVSIVRALEHLHSKLSVIHRDVKPSNVLINKEGHVKMCDFGISGYLVDSVAKTMDAGCKPYMAPERINPELNQKGYNVKSDVWSLGITMIEMAILRFPYESWGTPFQQLKQVVEEPSPQLPADRFSPEFVDFTAQCLRKNPAERMSYLELMEHPFFTLHKTKKTDIAAFVKEILGEDS [MAP2K3] | -0.112 | 1.81 | 2.08 | 48.8 | 50.1 | -0.00226 |
| ZNFX1 | -0.0887 | -0.325 | 0.64 | 50.3 | 49.5 | -0.239 |
| HINT3 | -0.161 | -1.15 | -1.14 | 55.1 | 54.7 | 0.186 |
| ERP29 | 0.169 | 2.19 | -0.433 | 54.6 | 55.7 | 0.456 |
